Measurements published in the supplement of paper PMC10899765.

Key:
Conditions in all cases: 20 nM; 72 h
MCF10A [1] = test: one-nucleolus phenotype percent effect (relative to siNT 0% and siNOL11 100%); higher = more cells with one nucleolus (ribosome biogenesis inhibition)
Protocol: (§1)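 After 72 h, cells were fixed and stained with Hoechst and anti-fibrillarin, and nucleoli per nucleus were counted with CellProfiler. Values are plate-adjusted percent effect for the one-nucleolus and 5+ nucleoli phenotypes, normalised to siNT (0%) and to the positive controls siNOL11 or siKIF11 (100%), as the mean of biological triplicates. Percent viability is the nuclei count relative to siNT.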

MCF10A [2] = test: percent viability (nuclei count relative to siNT); higher = more viable cells
Protocol: as §1

MCF10A [3] = test: 5+ nucleoli phenotype percent effect (relative to siNT 0% and siKIF11 100%); higher = more cells with five or more nucleoli
Protocol: as §1

Sequence | one-nucleolus phenotype percent effect (MCF10A [1]) [%] | percent viability (MCF10A [2]) [%] | 5+ nucleoli phenotype percent effect (MCF10A [3]) [%]
AGGCAUGGGAGGUCAGGUGA [hsa-miR-3622b-5p] | 32.5 | 16.5 | -30.6
UGGGCCAUGCAUUUCUAGAACU [hsa-miR-6508-3p] | 41.6 | 40.2 | -35
UGAGGCGGGGGGGCGAGC [hsa-miR-6087] | 15.3 | 53.3 | -13.4
CUACCCUCGGUCUGCUUACCACA [hsa-miR-7848-3p] | 25.5 | 41.7 | -35.7
UGAGGCUAAUGCACUACUUCAC [hsa-miR-3975] | 38.9 | 15.5 | -22.7
CCAGGGAGGCUGGUUUGGAGGA [hsa-miR-6754-5p] | 22.6 | 38 | -21.9
UCUCUGGUCUUGCCACCCCAG [hsa-miR-6824-3p] | 16.2 | 26.4 | -18.8
GCUGGGAAGGCAAAGGGACGU [hsa-miR-204-3p] | -9.16 | 49.7 | 24.5
UCUAGUAAGAGUGGCAGUCGA [hsa-miR-628-3p] | -7.59 | 55.8 | 31.5
UCUCUGGAGGGAAGCACUUUCUG [hsa-miR-518c-5p] | 33.3 | 45.4 | -17.1
ACAGGUGAGGUUCUUGGGAGCC [hsa-miR-125a-3p] | 5.16 | 62.4 | -0.517
AGUGGAUGAUGGAGACUCGGUAC [hsa-miR-3691-5p] | 34.9 | 13.1 | -12.7
AUUGAAACCUCUAAGAGUGGA [hsa-miR-510-3p] | -2.4 | 41.7 | 8.91
UUUUAAGGACACUGAGGGAUC [hsa-miR-7856-5p] | -30.1 | 70.5 | 57.8
ACUUGUAUGCUAGCUCAGGUAG [hsa-miR-643] | -31.1 | 165 | 68.8
CUAUAUAUCAAACAUAUUCCU [hsa-miR-190a-3p] | -19.5 | 67.4 | 35.7
GGUGAGGCUAGCUGGUG [hsa-miR-4316] | 13.5 | 41.7 | -8.12
GCUCCCUCUAGGGUCGCUCGGA [hsa-miR-4469] | -24.8 | 67.3 | 66
UCUGGCUAUCUCACGAGACUGU [hsa-miR-4794] | 26.9 | 35.9 | 3.59
AGAGCUGGCUGAAGGGCAG [hsa-miR-4487] | 25.5 | 18.7 | 16.5
GUCCACUUCUGCCUGCCCUGCC [hsa-miR-4436b-5p] | -10.1 | 51.1 | -0.992
ACUGUAAACGCUUUCUGAUG [hsa-miR-3607-3p] | -18.5 | 124 | 42.2
GCGACCCACUCUUGGUUUCCA [hsa-miR-551a] | -18 | 81.6 | 39.1
AGAACUCUUGCAGUCUUAGAUGU [hsa-miR-4680-5p] | -11.5 | 72 | -12.8
AUAAGACGAGCAAAAAGCUUGU [hsa-miR-208a] | -6.61 | 100 | 14.9
